Results taken from PMC10696660.

Biological target: AqpZ (UniProt P60844)
Experiment: native MS

Substance: AqpZ (from UniProt P60844 1-231) (natural protein)
- stoichiometry N: 4
